Results reported in paper PMC8621594, “Physicochemical and Biological Characterization of rhC1INH Expressed in CHO Cells” (Pharmaceuticals, 2021).
Each block holds one binder with its values, some of them ahead of it.

What was measured:
human C1s = human C1s (human); assay: cell-based or functional assay
[1] = biological target: T1, blood coagulation factor XIIa (human, UniProt P00748 20-615); assay: cell-based or functional assay
T1 sequence (looked up): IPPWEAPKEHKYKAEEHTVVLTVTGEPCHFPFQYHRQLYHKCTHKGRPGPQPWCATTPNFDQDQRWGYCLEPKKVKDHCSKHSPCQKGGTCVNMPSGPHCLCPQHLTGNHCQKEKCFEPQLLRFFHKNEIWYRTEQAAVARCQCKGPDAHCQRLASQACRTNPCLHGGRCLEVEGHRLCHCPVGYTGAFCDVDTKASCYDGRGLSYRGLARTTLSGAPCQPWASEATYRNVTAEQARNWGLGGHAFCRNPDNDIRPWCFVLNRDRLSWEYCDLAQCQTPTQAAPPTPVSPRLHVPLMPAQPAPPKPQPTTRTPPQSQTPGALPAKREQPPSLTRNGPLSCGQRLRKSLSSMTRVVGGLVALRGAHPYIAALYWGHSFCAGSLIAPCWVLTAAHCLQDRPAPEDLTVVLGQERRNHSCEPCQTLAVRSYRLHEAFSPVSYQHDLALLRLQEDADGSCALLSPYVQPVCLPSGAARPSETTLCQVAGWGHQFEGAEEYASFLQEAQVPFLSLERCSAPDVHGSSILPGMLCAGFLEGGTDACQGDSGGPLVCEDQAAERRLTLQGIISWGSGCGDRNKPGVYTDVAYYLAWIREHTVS

[2] = biological target: T1, blood coagulation factor XIIa; assay: BLI; Octet QKe; each protease diluted to 10 ug/mL in 10 mM sodium acetate pH 6.0 and covalently immobilised on amino reactive sensors (AR2G); C1 inhibitor at 11, 5.5 and 2.8 uM in triplicates; 24 °C, 250 rpm; only the association rate constant calculated because complex formation is irreversible; details: both partners purified

IC50 of the inhibition of human serum complement (lysis of chicken erythrocytes), Ruconest® 0.0076 to 15.6 IU/mL; printed as activity against human C1-esterase in the blood serum (human C1s): 1.66 IU/mL
B1: Ruconest^® (conestat alfa), human recombinant C1 inhibitor purified from the milk of transgenic rabbits (natural protein, UniProt P05155 23-500, looked up)
chain: NPNATSSSSQDPESLQDRGEGKVATTVISKMLFVEPILEVSSLPTTNSTTNSATKITANTTDEPTTQPTTEPTTQPTIQPTQPTTQLPTDSPTQPTTGSFCPGPVTLCSDLESHSTEAVLGDALVDFSLKLYHAFSAMKKVETNMAFSPFSIASLLTQVLLGAGENTKTNLESILSYPKDFTCVHQALKGFTTKGVTSVSQIFHSPDLAIRDTFVNASRTLYSSSPRVLSNNSDANLELINTWVAKNTNNKISRLLDSLPSDTRLVLLNAIYLSAKWKTTFDPKKTRMEPFHFKNSVIKVPMMNSKKYPVAHFIDQTLKAKVGQLQLSHNLSLVILVPQNLKHRLEDMEQALSPSVFKAIMEKLEMSKFQPTLLTLPRIKVTTSQDMLSIMEKLEFFDFSYDLNLCGLTEDPDLQVSAMQHQTVLELTETGVEAAAASAISVARTLLVFEVQQPFLFVLWDQQHKFPVFMGRVYDPRA
modifications: glycosylated; 8.0 ± 0.6 mol Neu5Ac/mol protein

inhibitory activity toward factor XIIa, chromogenic substrate S-2302, inhibitor 18 to 0.14 µM, relative to Berinert® (100%) [1]: 115% | kon [2]: 3260 M⁻¹ s⁻¹
B2: recombinant human C1 esterase inhibitor (rhC1INH) from Chinese hamster ovary (CHO) cells (natural protein, UniProt P05155 23-500, looked up)
chain: B1 chain
modifications: heavily glycosylated: six occupied N- and more than 12 O- sites of glycosylation; about 20 mol Neu5Ac/mol protein
notes: mass of the totally deglycosylated protein 52,846 Da (theoretical 52,849 Da); By LC-MS 71% of the deglycosylated product is the full structure; source: genetically engineered CHO cells, purified
